T1: LEAI.472
T1 chain: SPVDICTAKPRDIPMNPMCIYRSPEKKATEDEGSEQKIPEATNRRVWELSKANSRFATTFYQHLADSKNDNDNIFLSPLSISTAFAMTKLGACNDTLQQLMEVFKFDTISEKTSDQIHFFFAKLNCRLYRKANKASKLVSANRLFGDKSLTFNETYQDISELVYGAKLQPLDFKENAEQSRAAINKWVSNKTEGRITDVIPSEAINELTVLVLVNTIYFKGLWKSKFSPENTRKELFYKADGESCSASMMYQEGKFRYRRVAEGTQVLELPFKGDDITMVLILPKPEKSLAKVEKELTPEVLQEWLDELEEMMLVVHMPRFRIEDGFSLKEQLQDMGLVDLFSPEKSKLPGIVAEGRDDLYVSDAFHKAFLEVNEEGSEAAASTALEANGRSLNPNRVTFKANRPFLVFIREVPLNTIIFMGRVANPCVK

T2: LEAI.474
T2 chain: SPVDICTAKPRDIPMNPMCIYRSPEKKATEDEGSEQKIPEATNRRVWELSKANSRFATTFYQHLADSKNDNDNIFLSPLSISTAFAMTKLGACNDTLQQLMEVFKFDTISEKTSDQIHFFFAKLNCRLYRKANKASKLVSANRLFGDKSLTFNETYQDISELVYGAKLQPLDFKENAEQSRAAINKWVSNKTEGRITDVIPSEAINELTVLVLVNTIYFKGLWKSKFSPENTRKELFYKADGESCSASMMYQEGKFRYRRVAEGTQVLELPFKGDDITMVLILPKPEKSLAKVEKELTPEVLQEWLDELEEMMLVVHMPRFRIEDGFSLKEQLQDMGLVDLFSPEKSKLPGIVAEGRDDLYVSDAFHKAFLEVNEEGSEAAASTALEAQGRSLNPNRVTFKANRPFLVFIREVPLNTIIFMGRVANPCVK

T3: LEAI.480
T3 chain: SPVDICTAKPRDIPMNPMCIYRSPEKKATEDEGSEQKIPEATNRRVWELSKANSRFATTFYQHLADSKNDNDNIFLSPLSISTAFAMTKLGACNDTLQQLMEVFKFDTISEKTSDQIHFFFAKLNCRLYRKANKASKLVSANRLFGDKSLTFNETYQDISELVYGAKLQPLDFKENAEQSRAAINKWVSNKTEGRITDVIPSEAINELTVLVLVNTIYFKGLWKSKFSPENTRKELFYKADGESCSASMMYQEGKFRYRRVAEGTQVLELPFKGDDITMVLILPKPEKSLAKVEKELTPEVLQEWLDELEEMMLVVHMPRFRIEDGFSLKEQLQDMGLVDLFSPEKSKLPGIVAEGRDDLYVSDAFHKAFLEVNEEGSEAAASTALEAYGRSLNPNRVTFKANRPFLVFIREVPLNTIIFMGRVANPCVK

T4: LEAI.482
T4 chain: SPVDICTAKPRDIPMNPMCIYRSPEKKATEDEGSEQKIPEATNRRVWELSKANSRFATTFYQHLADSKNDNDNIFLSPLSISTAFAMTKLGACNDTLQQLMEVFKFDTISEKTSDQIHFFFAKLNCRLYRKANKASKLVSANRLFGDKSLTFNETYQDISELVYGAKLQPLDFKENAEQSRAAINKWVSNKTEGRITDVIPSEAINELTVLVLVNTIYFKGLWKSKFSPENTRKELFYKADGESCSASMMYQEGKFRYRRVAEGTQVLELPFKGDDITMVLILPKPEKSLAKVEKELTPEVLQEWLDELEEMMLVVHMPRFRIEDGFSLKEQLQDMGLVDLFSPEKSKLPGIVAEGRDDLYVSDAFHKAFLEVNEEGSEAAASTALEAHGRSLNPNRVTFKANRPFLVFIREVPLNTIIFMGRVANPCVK


Experiments:
LEAI.472 = target: T1, LEAI.472
LEAI.474 = target: T2, LEAI.474
LEAI.480 = target: T3, LEAI.480
LEAI.482 = target: T4, LEAI.482
[1] = target: plasma-derived ATIII, P01008

Protein | Substrate: halflife, min, HNE (LEAI.472) [min] | halflife HNE/hep as a percentage of plasma ATIII value (LEAI.472) [%] | Substrate: halflife, min, HNE (LEAI.474) [min] | halflife HNE/hep as a percentage of plasma ATIII value (LEAI.474) [%] | Substrate: halflife, min, HNE (LEAI.480) [min] | halflife HNE/hep as a percentage of plasma ATIII value (LEAI.480) [%] | Substrate: halflife, min, HNE (LEAI.482) [min] | halflife HNE/hep as a percentage of plasma ATIII value (LEAI.482) [%] | Substrate: halflife, min, HNE [1] [min] | Substrate: halflife, min, CatG (LEAI.472) [min] | Substrate: halflife, min, CatG (LEAI.474) [min] | Substrate: halflife, min, CatG (LEAI.480) [min] | Substrate: halflife, min, CatG (LEAI.482) [min]
human neutrophil elastase (protein) IVGGRRARPHAWPFMVSLQLRGGHFCGATLIAPNFVMSAAHCVANVNVRAVRVVLGAHNLSRREPTRQVFAVQRIFENGYDPVNLLNDIVILQLNGSATINANVQVAQLPAQGRRLGNGVQCLAMGWGLLGRNRGIASVLQELNVTVVTSLCRRSNVCTLVRGRQAGVCFGDSGSPLVCNGLIHGIASFVRGGCASGLYPDAFAPVAQFVNWIDSIIQ | 30.1 | 1038 | 38.4 | 1324 | 19.9 | 686 | 25.3 | 872 | 2.9 | – | – | – | –
human neutrophil cathepsin G (protein) IIGGRESRPHSRPYMAYLQIQSPAGQSRCGGFLVREDFVLTAAHCWGSNINVTLGAHNIQRRENTQQHITARRAIRHPQYNQRTIQNDIMLLQLSRRVRRNRNVNPVALPRAQEGLRPGTLCTVAGWGRVSMRRGTDTLREVQLRVQRDRQCLRIFGSYDPRRQICVGDRRERKAAFKGDSGGPLLCNNVAHGIVSYGKSSGVPPEVFTRVSSFLPWIRTTMRS | – | – | – | – | – | – | – | – | – | 333 | > 300 | 35.8 | > 240
